Here are results for 1 molecule from PMC7737607 (The EMBO Journal, 2020).

This assay addresses T1, Cap-Gly-CC1a-p150Glued-V5 (human, UniProt Q14203-1 1-358).
T1 construct: ATUM ordered gene ID #391071; also called Cap-Gly-CC1-p150Glued-V5; p150Glued-V5-tagged fragment; source: generated and purchased from ATUM Bio, purified (streptavidin-column based methods)
Put plainly: pull-down; purified proteins mixed 1:1, with or without FLAG-EB1 WT or ΔY C-term, 1 h at 4°C in 20 mM Tris-HCl pH 7.4, 350 mM NaCl, 1 mM 2-mercaptoethanol; p150Glued-V5 fragment captured on anti-V5 antibody-coated beads, 2 h at 4°C; Western blot. Conditions: both partners purified. In general terms: In western blotting, separated proteins are transferred to a membrane and probed.

T1 sequence (Q14203 1-358): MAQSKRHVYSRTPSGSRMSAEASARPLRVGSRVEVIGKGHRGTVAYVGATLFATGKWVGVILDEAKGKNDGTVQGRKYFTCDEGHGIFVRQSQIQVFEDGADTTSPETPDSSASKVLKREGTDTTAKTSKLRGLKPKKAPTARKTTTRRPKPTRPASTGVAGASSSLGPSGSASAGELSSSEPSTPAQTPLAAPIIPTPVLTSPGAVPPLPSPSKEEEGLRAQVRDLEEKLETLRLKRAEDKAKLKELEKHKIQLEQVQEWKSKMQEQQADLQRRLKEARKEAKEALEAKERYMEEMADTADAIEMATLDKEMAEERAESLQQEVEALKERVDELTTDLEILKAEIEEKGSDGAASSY

B1: FLAG-EB1 WT C-term (domain or fragment, human, UniProt Q15691 191-268, looked up)
chain: DEAAELMQQVNVLKLTVEDLEKERDFYFGKLRNIELICQENEGENDPVLQRIVDILYATDEGFVIPDEGGPQEEQEEY
notes: ATUM ordered gene ID #394359; also called FLAG-EB1 C-terminal; FLAG-tagged EB1 WT; source: generated and purchased from ATUM Bio, purified (streptavidin-column based methods)
Take B1: the binding result is listed as “binds”.
